This is an account of results in the supplement of paper PMC7877785.

± gives the uncertainty stated by the source.

A short description of this data set: self-splicing fitness, log relative to wild type (ln ratio); higher = more splicing; Tetrahymena group I intron in knt gene, E. coli kanamycin selection, DiMSum; sequences stand for … in CUCUCU…GGAGGGAAAAGUUAUCAGGCAUGCACCUGGUAGCUAGUCUUUAAACCAAUAGAUUGCAUCGGUUUAAAAGGCAAGACCGUCAAAUUGCGGGAAAGGGGUCAACAGCCGUUCAGUACCAAGUCUCAGGGGAAACUUUGAGAUGGCCUUGCAAAGGGUAUGGUAAUAAGCUGACGGACAUGGUCCUAACCACGCAGCCAAGUCCUAAGUCAACAGAUCUUCUGUUGAUAUGGAUGCAGUUCACAGACUAAAUGUCGGUCGGGGAAGAUGUAUUCUUCUCAUAAGAUAUAGUCGGACCUCUCCUUAAUGGGAGCUAGCGGAUGAAGUGAUGCAACACUGGAGCCGCUGGGAACUAAUUUGUAUGCGAAAGUAUAUUGAUUAGUUUUGGAGUACUCGUGGUCG
In a few lines: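 A randomised library covering all eight P1ex-region intron nucleotides was built with the intron in the knt kanamycin-resistance gene on pET-22b(+) and held in E. coli BL21(DE3). Cells were grown overnight at 37°C or 30°C on LB agar, with or without 25 μg/mL kanamycin, plus 100 μg/mL carbenicillin, 50 μM IPTG and 0.2% rhamnose, and pooled colonies were amplicon-sequenced on an Illumina HiSeq 2500. DiMSum fitness is the error-weighted combination of wild-type-normalised replicate fold changes, kanamycin versus none.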

In the case of UUAGAGCAAUAUUACGGCGC, the “self-splicing fitness (ln)” value by setting is: (30 °C) -2.79 ± 0.24; (37 °C) -0.914 ± 0.25.
With UUAGAGCAAUAUUACGGGCG, the “self-splicing fitness (ln)” value reads like this: (30 °C) -2.23 ± 0.14; (37 °C) -1.13 ± 0.17.
With UUAGAGCAAUAUUACGGGGG, the “self-splicing fitness (ln)” value by setting is: (30 °C) -3.04 ± 0.31; (37 °C) -1.79 ± 0.36.
For UUAGAGCAAUAUUACGGGGU the same measures were -2.83 ± 0.3 and -2.06 ± 0.46.
Regarding UUAGAGCAAUAUUACGGGUG, the “self-splicing fitness (ln)” value was -3.1 ± 0.33 (30 °C) and -0.89 ± 0.2 (37 °C).
Consider UUAGAGCAAUAUUACGGUAU, for which the “self-splicing fitness (ln)” value reads like this: (30 °C) -3.84 ± 0.28; (37 °C) -1.36 ± 0.19.
The matching figures for UUAGAGCAAUAUUACGGUCG: -1.64 ± 0.19 and -0.691 ± 0.31.
For UUAGAGCAAUAUUACGUAGU the same measures were -1.3 ± 0.21 and -3.47 ± 0.42.
For UUAGAGCAAUAUUACGUCCA, the “self-splicing fitness (ln)” value was -1.31 ± 0.22 (30 °C) and -1.71 ± 0.37 (37 °C).
For UUAGAGCAAUAUUACGUCUC, the “self-splicing fitness (ln)” value is, setting by setting: (30 °C) -3.56 ± 0.25; (37 °C) -2.82 ± 0.34.
For UUAGAGCAAUAUUACGUCUU the same measures were -1.62 ± 0.097 and -0.85 ± 0.13.
Regarding UUAGAGCAAUAUUACGUUCG, the “self-splicing fitness (ln)” value (30 °C) was -1.22 ± 0.1 and the “self-splicing fitness (ln)” value (37 °C) is -0.767 ± 0.15.
The matching figures for UUAUAGCAAUAUUACGAACA: -1.51 ± 0.19 and -0.83 ± 0.17.
For UUAUAGCAAUAUUACGAAUG the same measures were -2.43 ± 0.16 and -0.727 ± 0.17.
The matching figures for UUAUAGCAAUAUUACGACCG: -0.514 ± 0.16 and 0.446 ± 0.22.
Take UUAUAGCAAUAUUACGAUAA: the “self-splicing fitness (ln)” value (30 °C) was -0.51 ± 0.11 and the “self-splicing fitness (ln)” value (37 °C) is -0.0656 ± 0.12.
Consider UUAUAGCAAUAUUACGCAAG, for which the “self-splicing fitness (ln)” value is, setting by setting: (30 °C) -1.35 ± 0.16; (37 °C) -1.89 ± 0.19.
In the case of UUAUAGCAAUAUUACGCACA, the “self-splicing fitness (ln)” value is -0.698 ± 0.085 (30 °C) and 0.287 ± 0.084 (37 °C).
On to UUAUAGCAAUAUUACGCCAA, for which the “self-splicing fitness (ln)” value (37 °C) was -0.44 ± 0.25.
With UUAUAGCAAUAUUACGCCUU, the “self-splicing fitness (ln)” value reads like this: (30 °C) -2.91 ± 0.26; (37 °C) -0.144 ± 0.2.
In the case of UUAUAGCAAUAUUACGCGGC, the “self-splicing fitness (ln)” value (30 °C) was -2.42 ± 0.49 and the “self-splicing fitness (ln)” value (37 °C) is -2.4 ± 0.37.
For UUAUAGCAAUAUUACGCUAA the same measures were -2.61 ± 0.24 and -2.34 ± 0.19.
For UUAUAGCAAUAUUACGCUCU the same measures were -2.68 ± 0.37 and -0.705 ± 0.46.
The matching figures for UUAUAGCAAUAUUACGGACC: -3.38 ± 0.47 and -1.41 ± 0.21.
In the case of UUAUAGCAAUAUUACGGCGU, the “self-splicing fitness (ln)” value is -2.88 ± 0.34 (30 °C) and -1.7 ± 0.23 (37 °C).
Consider UUAUAGCAAUAUUACGGGAG, for which the “self-splicing fitness (ln)” value (30 °C) was -2.25 ± 0.25 and the “self-splicing fitness (ln)” value (37 °C) was -1.94 ± 0.31.
For the sequence UUAUAGCAAUAUUACGGGUG, the “self-splicing fitness (ln)” value is -1.68 ± 0.1 (30 °C) and -0.829 ± 0.12 (37 °C).
Consider UUAUAGCAAUAUUACGUACU, for which the “self-splicing fitness (ln)” value reads like this: (30 °C) -1.49 ± 0.18; (37 °C) -1 ± 0.23.
For UUAUAGCAAUAUUACGUAGA the same measures were -1.34 ± 0.17 and -0.707 ± 0.17.
Turning to UUAUAGCAAUAUUACGUCAG, the “self-splicing fitness (ln)” value was -1.61 ± 0.13 (30 °C) and -0.818 ± 0.12 (37 °C).
Take UUAUAGCAAUAUUACGUUGA: the “self-splicing fitness (ln)” value (30 °C) is -2.54 ± 0.42 and the “self-splicing fitness (ln)” value (37 °C) is -1.58 ± 0.27.
The matching figures for UUCAAGCAAUAUUACGAAAG: -3.65 ± 0.24 and -2.39 ± 0.28.
The matching figures for UUCAAGCAAUAUUACGAAUG: -4.12 ± 0.24 and -2.87 ± 0.27.
As for UUCAAGCAAUAUUACGACCA, the “self-splicing fitness (ln)” value runs as follows: (30 °C) -1.48 ± 0.31; (37 °C) -0.352 ± 0.21.
The matching figures for UUCAAGCAAUAUUACGACGA: -0.243 ± 0.084 and 0.213 ± 0.084.
As for UUCAAGCAAUAUUACGAGAU, the “self-splicing fitness (ln)” value (30 °C) is -3.07 ± 0.19 and the “self-splicing fitness (ln)” value (37 °C) is -2.17 ± 0.18.
For UUCAAGCAAUAUUACGAGGU the same measures were -3.41 ± 0.29 and -1.89 ± 0.23.
For UUCAAGCAAUAUUACGAUGA the same measures were -0.963 ± 0.097 and 0.0199 ± 0.092.
For UUCAAGCAAUAUUACGAUUC the same measures were -2.57 ± 0.15 and -2.22 ± 0.19.
As to UUCAAGCAAUAUUACGCAAU, the “self-splicing fitness (ln)” value by setting is: (30 °C) -2.21 ± 0.19; (37 °C) -1.99 ± 0.21.
For UUCAAGCAAUAUUACGCCUU the same measures were -1.8 ± 0.13 and -0.968 ± 0.2.
For UUCAAGCAAUAUUACGCGCA the same measures were -0.732 ± 0.13 and 0.264 ± 0.17.
Regarding UUCAAGCAAUAUUACGCGCC, the “self-splicing fitness (ln)” value (30 °C) is -0.923 ± 0.17 and the “self-splicing fitness (ln)” value (37 °C) is -1.38 ± 0.25.
The matching figures for UUCAAGCAAUAUUACGCGUU: -2.62 ± 0.12 and -0.189 ± 0.09.
Turning to UUCAAGCAAUAUUACGGCCC, the “self-splicing fitness (ln)” value is -1.49 ± 0.17 (30 °C) and -0.618 ± 0.18 (37 °C).
For UUCAAGCAAUAUUACGGCGG the same measures were -0.903 ± 0.076 and -0.416 ± 0.1.
The matching figures for UUCAAGCAAUAUUACGGGAU: -3.11 ± 0.13 and -1.4 ± 0.14.
For UUCAAGCAAUAUUACGGGCU, the “self-splicing fitness (ln)” value (30 °C) was -3.7 ± 0.21 and the “self-splicing fitness (ln)” value (37 °C) is -1.81 ± 0.16.
For UUCAAGCAAUAUUACGGUAC the same measures were -2.8 ± 0.2 and -2.71 ± 0.36.
The matching figures for UUCAAGCAAUAUUACGGUCG: -0.917 ± 0.1 and -0.62 ± 0.13.
For UUCAAGCAAUAUUACGGUCU the same measures were -2.89 ± 0.16 and -1.97 ± 0.16.
For the sequence UUCAAGCAAUAUUACGGUUA, the “self-splicing fitness (ln)” value was -0.0762 ± 0.097 (30 °C) and 0.272 ± 0.086 (37 °C).
The matching figures for UUCAAGCAAUAUUACGUCGA: -0.383 ± 0.078 and -0.0975 ± 0.087.
The matching figures for UUCAAGCAAUAUUACGUGCG: -1.48 ± 0.092 and -0.425 ± 0.088.
For UUCAAGCAAUAUUACGUGGU the same measures were -4.01 ± 0.2 and -2.7 ± 0.17.
As for UUCAAGCAAUAUUACGUUAA, the “self-splicing fitness (ln)” value (30 °C) is -1.59 ± 0.11 and the “self-splicing fitness (ln)” value (37 °C) was -1.47 ± 0.12.
For UUCAAGCAAUAUUACGUUAC the same measures were -3.73 ± 0.36 and -2.72 ± 0.23.
For UUCAAGCAAUAUUACGUUCU the same measures were -2.22 ± 0.14 and -2.14 ± 0.17.
Turning to UUCAAGCAAUAUUACGUUUU, the “self-splicing fitness (ln)” value was -3.78 ± 0.17 (30 °C) and -2.65 ± 0.16 (37 °C).
For the sequence UUCCAGCAAUAUUACGAAAG, the “self-splicing fitness (ln)” value runs as follows: (30 °C) -2.6 ± 0.27; (37 °C) -2.33 ± 0.27.
Take UUCCAGCAAUAUUACGAACG: the “self-splicing fitness (ln)” value runs as follows: (30 °C) -2.22 ± 0.16; (37 °C) -0.164 ± 0.15.
For UUCCAGCAAUAUUACGAGGA the same measures were -1.83 ± 0.19 and -0.64 ± 0.22.
The matching figures for UUCCAGCAAUAUUACGCAGG: -3.53 ± 0.23 and -2.57 ± 0.36.
The matching figures for UUCCAGCAAUAUUACGCAUG: -3.41 ± 0.25 and -1.7 ± 0.16.
For the sequence UUCCAGCAAUAUUACGCAUU, the “self-splicing fitness (ln)” value reads like this: (30 °C) -3.09 ± 0.17; (37 °C) -0.682 ± 0.11.
Turning to UUCCAGCAAUAUUACGCCCA, the “self-splicing fitness (ln)” value was -1.38 ± 0.18 (30 °C) and -0.115 ± 0.17 (37 °C).
Regarding UUCCAGCAAUAUUACGCCGU, the “self-splicing fitness (ln)” value is -2.53 ± 0.16 (30 °C) and -1.43 ± 0.23 (37 °C).
UUCCAGCAAUAUUACGCGGU: the “self-splicing fitness (ln)” value runs as follows: (30 °C) -3.42 ± 0.18; (37 °C) -2.54 ± 0.2.
On to UUCCAGCAAUAUUACGCUUU, for which the “self-splicing fitness (ln)” value is -3.23 ± 0.23 (30 °C) and -0.119 ± 0.12 (37 °C).
Turning to UUCCAGCAAUAUUACGGAGC, the “self-splicing fitness (ln)” value runs as follows: (30 °C) -4.31 ± 0.31; (37 °C) -2.99 ± 0.47.
In the case of UUCCAGCAAUAUUACGGCGG, the “self-splicing fitness (ln)” value reads like this: (30 °C) -3.09 ± 0.17; (37 °C) -2.72 ± 0.27.
Consider UUCCAGCAAUAUUACGGGUA, for which the “self-splicing fitness (ln)” value (30 °C) was -0.292 ± 0.08 and the “self-splicing fitness (ln)” value (37 °C) was 0.0398 ± 0.088.
For UUCCAGCAAUAUUACGGUCC the same measures were -1.79 ± 0.15 and -2.18 ± 0.17.
The matching figures for UUCCAGCAAUAUUACGUCCU: -2.67 ± 0.21 and -2.29 ± 0.32.
Consider UUCCAGCAAUAUUACGUCUA, for which the “self-splicing fitness (ln)” value was -0.638 ± 0.082 (30 °C) and 0.0519 ± 0.093 (37 °C).
